Experimental findings from article PMC6061939 (Biochemical and biophysical research communications, 2017) are described below.

Assay in all cases: SEC
Experiment [1] addresses Dictyostelium discoideum Mdm12 (residues S2-N202) (Dictyostelium discoideum).
Experiment [2] addresses Saccharomyces cerevisiae Mmm1Δ (SMP domain) (Saccharomyces cerevisiae) (UniProt P41800).
In experiment [3] the target is T1, Saccharomyces cerevisiae Mmm1Δ (SMP domain) (Saccharomyces cerevisiae, UniProt P41800 194-409).
T1 sequence (looked up): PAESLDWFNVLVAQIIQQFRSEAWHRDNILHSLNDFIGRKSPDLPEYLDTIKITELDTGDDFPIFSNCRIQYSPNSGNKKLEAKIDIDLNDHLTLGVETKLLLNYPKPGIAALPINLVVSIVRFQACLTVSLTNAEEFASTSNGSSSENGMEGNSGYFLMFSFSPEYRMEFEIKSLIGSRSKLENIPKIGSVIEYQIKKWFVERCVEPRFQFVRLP

Turning to “Dictyostelium discoideum Mdm12 (residues S2-N202) (natural protein)”, in experiment [1], the stoichiometry N (commonly the number of molecules, sites or subunits per partner or assembly) was determined as 2. As to “Saccharomyces castellii Mdm12 (residues S2-E244) (natural protein)”, the stoichiometry N in experiment [2] was 1.

B1: Saccharomyces cerevisiae Mdm12 (natural protein)
chain: MSFDINWSTLESDNRLNDLIRKHLNSYLQNTQLPSYVSNLRVLDFDLGKVGPAITLKEITDPLDEFYDSIREEADQETEENNDNKEDSEHICPDRTIANHEGPKDDFEAPVVMPSPNDIQFLLEVEYKGDLLVTIGADLVLNYPVEKFMTLPVKLSISDIGLHSLCIVACLSKQLFLSFLCDVSDPALDDNQTVLDPKGPILAATKPLERISIVRSMKIETEIGEQYQGQGSVLRSVGELEQFLFTIFKDFLRKELAWPSWINLDFNDGDE
In the case of B1, in experiment [3], the “stoichiometry N” value was found to be 1.
